In the supplement of paper PMC12764529:
± gives the half width of the 95% confidence interval.

Experiments:
[1] = folding stability dG unfold from trypsin proteolysis; higher = more stable
In short: (§1)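 Unfolding free energy was derived, per protease or combined, by relating Bayesian-fitted K50 values from sequencing counts to a sequence-predicted unfolded-state K50 and a shared folded-state K50. The underlying digests exposed cysteine-free mini-proteins under 80 residues, in a PA-tagged cDNA display construct, to trypsin and chymotrypsin at 11 threefold-diluted concentrations and to a no-protease condition. A filter kept only designs with AlphaFold2 dimer inter-PAE above 15.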

[2] = folding stability dG unfold from chymotrypsin proteolysis; higher = more stable
In short: as §1

[3] = folding stability dG unfold (combined trypsin and chymotrypsin); higher = more stable
In short: as §1

Sequence | folding stability dG unfold [1] [kcal/mol] | folding stability dG unfold [2] [kcal/mol] | folding stability dG unfold [3] [kcal/mol]
SAGGGMIERYDGKIVIKLKGPNGKEWTSTTEPLPDGTARITVTHPDKVLYLEHTPEGISVVSEVSNEKSAGG [r13_619_JUSTAS] | -0.757 ± 0.33 | -0.426 ± 0.45 | -0.411 ± 0.22
SAGGGMMTVTVTRVEREKPAGDEYLEKVLVTLPDSTLEATLTLKEKEEADKPPSVTVVPLEAVLALLASAGG [r13_540_JUSTAS] | 0.927 ± 0.019 | -0.274 ± 0.31 | 0.57 ± 0.11
SAGGGMPTSIVLPLTVSPENVEEAIAALKAQLEAQGYTLLEVNPVKDGNTWKLRAVFRAPDGTLVTDESAGG [r13_421_JUSTAS] | 3.11 ± 0.079 | 3.313 ± 0.017 | 3.26 ± 0.059
SAGGGMRAVEVTVTLTVPSSTSVEEAVERVKAEFEAAGLEAEPVSVTVTPVPGSVTVTVRLRVLRPPASAGG [r13_351_JUSTAS] | 2.31 ± 0.04 | 3.48 ± 0.049 | 3.19 ± 0.063
SAGGGMSEEYVKKLFESLGFTKLETREYPGLKVTTFSAKDLTVVAYPDGTIEIFDKNGNLIKTDKGLSAGGS [r8_147_JUSTAS] | 1.06 ± 0.021 | 1.82 ± 0.03 | 1.54 ± 0.049
SAGGGMSGKAISEEEIEALIKEEAEKRGLKIEIKEITRPPGTVTVTVKITEGDSVTEKTIDFPILPEPSAGG [r13_652_JUSTAS] | 1.54 ± 0.039 | 1.64 ± 0.054 | 1.59 ± 0.06
SAGGGMTTTTVTVTLDVPPDAGEEEVERLAEEIAAELKAAHPNITVTVEKITIDEKNATFTITVTTPGSAGG [r13_805_JUSTAS] | 3.19 ± 0.096 | 2.928 ± 0.029 | 3.03 ± 0.058
SAGGGMTVTRTIYLPNMTEEEKKALAEEIAEEVREELEKRGYPVKEITVDVKFIPGKGIVIVTVTLKLSAGG [r13_212_JUSTAS] | 3.29 ± 0.09 | 3.64 ± 0.089 | 3.52 ± 0.055
SAGGGMTVVRITHPDGTPLTIEYDPNNPVATVHFADGTTETIPMPPDKTIEDLIAKLPEDAEVEVHDRSAGG [r13_696_JUSTAS] | 0.321 ± 0.078 | 1.19 ± 0.026 | 0.847 ± 0.14
SAGGGMVVYVTVPPDDPRVEELKERLAADPRVSDVTVEKVEEYPDTVRLRFTFPGDPAVVAAARALLSAGGS [r16_394_JUSTAS] | 0.995 ± 0.059 | 1.51 ± 0.096 | 1.32 ± 0.053
SAGGGPAPVVVTVEYDPETREQRVTARAGGGGVVFELSLPLGDKTVTVKVIPVGDKVLLEVEWEVKGSAGGS [r16_631_TrMRF] | 2.95 ± 0.16 | 3.06 ± 0.13 | 2.91 ± 0.15
SAGGGPDLPGEVEVEVEITRVEFDPETGELRVEAEATFPDGLVAKVKITFPEPGDLDKFEVEVEVEPASAGG [r13_894_TrMRF] | 1.5 ± 0.052 | 1.68 ± 0.071 | 1.59 ± 0.035
SAGGGPMPIDVEVLEVTPDSVRIRYPETGAVFTFDPNKEHEFTLPDGSRITVTFKPDGSVSATVTVPGSAGG [r13_352_JUSTAS] | 4.35 ± 0.3 | 4.13 ± 0.13 | 4.16 ± 0.14
SAGGGPMPVEKEVEITLEVDPSDPASVRARLEALAASRGVEEITEITEETLPDGSRRVTAKVKWLLPVSAGG [r13_222_JUSTAS] | 1.15 ± 0.067 | 0.397 ± 0.15 | 0.875 ± 0.087
SAGGGPNTYVKVTLPLPPNKADVVEEIAKLFPNVKVEVTTTPENGTLPVTFYFPSPDGSPDAKVSIFSAGGS [r8_267_TrMRF] | 0.407 ± 0.15 | 1.11 ± 0.31 | 0.754 ± 0.15
SAGGGQPVKITEIENIDPNNGKITFEIVDPDDGRPLKIKIPVQRRPNGKPYLQIEIEVDGKKWEIMFMSAGG [r13_993_TrROS] | 1.7 ± 0.17 | 1.67 ± 0.16 | 1.87 ± 0.15
SAGGGRTITVTARFTDPATGTTTTETITIDVPSDTSEEEKKEIAEKTVKEIAEKNGVKSEIESISITSAGGS [r8_312_JUSTAS] | 4.24 ± 0.29 | 2.3 ± 0.17 | 4.32 ± 0.7
SAGGGSMVFVEFPQGGKTVRVDVDLEKGVLRVRFPGEGAVLEYPVRDPEAVVRELTPADVPVRAYPESAGGS [r8_95_JUSTAS] | 0.346 ± 0.078 | 0.405 ± 0.11 | 0.439 ± 0.072

Sequence | folding stability dG unfold [1] [kcal/mol] | folding stability dG unfold [2] [kcal/mol] | folding stability dG unfold [3] [kcal/mol]
SAGGGSRTLTRGDKTYVFTTAPPPTGGRYVTLTVVDPATGAPAPVYTMDVTDGTDEEALARLLAAPLSAGGS [r16_378_JUSTAS] | -0.038 ± 0.11 | 0.847 ± 0.091 | 0.581 ± 0.038
SAGGGSSMPVPVRVAEFNVPDSRPEELIERAKELLEADEIDVLVVPSPAAQEALKAAFPDFPVPVLVRSAGG [r13_353_JUSTAS] | -0.646 ± 0.085 | -0.339 ± 0.17 | -0.459 ± 0.11
SAGGGSVPAEHLVSVSYEKPPWSDEPVITVTALKGGKPVTFTIPSSLSEEEALEAVEKAIAAGPFALGSAGG [r13_225_JUSTAS] | 0.638 ± 0.055 | 0.579 ± 0.13 | 0.675 ± 0.099
SAGGGSVSTSVTPDPATGLVTVTVTLTRTTPTPSPGTTTTTTTITVTVQVPPSYQPTATITVSVPASLSAGG [r13_450_JUSTAS] | 3.49 ± 0.16 | 3.91 ± 0.12 | 3.72 ± 0.082
SAGGGTATVTTAEAELPGDVRVTTATVTLPDGSAVRVVTLSSSVPNATATVVVPLPANGPGEGVIVLPSAGG [r13_323_TrMRF] | 1.44 ± 0.073 | 0.785 ± 0.056 | 1.15 ± 0.069
SAGGGTEIEYNPETGEIIVKVNPLIPYPFEPGSETIPLPFEGDPEAAEQEIRDLIEEHPDASFDIKPSSAGG [r13_284_TrMRF] | 0.638 ± 0.085 | -1.32 ± 0.17 | 0.0628 ± 0.061
SAGGGTYYLIFKITETKTDPKTGKTTTSEKVIVDPLENPGSISAEEIAKLKEELEPKGYTVEIEIKPKSAGG [r13_926_JUSTAS] | 0.654 ± 0.045 | 1.41 ± 0.27 | 1.07 ± 0.23
SAGGGVEITREPDPAGGRRVRFTDPSGRTFEVEITPDSLRITRPDGTTRSAAVPPDADLRLPYSELASAGGS [r16_203_JUSTAS] | -0.625 ± 0.12 | 0.418 ± 0.041 | 0.134 ± 0.057
SAGGGVKFELVDIESDGDGKYIAKIKVYNENGELIEEIEIEVKGLKNVTLTIPLINKPKKIEIKVTPESAGG [r13_427_TrMRF] | 0.752 ± 0.03 | 1.51 ± 0.093 | 1.21 ± 0.12
SAGGGVMIAIKKIDPKNGKLEIEIWMPEGFEDPDQRKEMLEMADSLADRLQELHGIPVKVTIHPFPNSAGGS [r16_304_TrROS] | 2.31 ± 0.083 | 2.27 ± 0.076 | 2.31 ± 0.12
SAGGGWPWVVKFEPPDGKEMEFVIPFNPKKNWYWIKMPGNGKTVPVPLDDLEEQPGFQIDEIEPLDDLSAGG [r13_994_TrROS] | -0.0768 ± 0.33 | 1.31 ± 0.48 | 1 ± 0.27
SAGGIDLDNMSPEEAKERARDTVREFRELFPPEKKYKFKIKVTIDYRDPGNGRQRTVTVEAPIEFTPDSAGG [r13_385_TrROS] | 0.636 ± 0.12 | 0.862 ± 0.28 | 0.753 ± 0.24
SAGGIELKINIQMPAEEAVEFIRNFIEELGYEIEDIEVERDPENGMVSVPIEFEIKPVPPVDPEDQKSAGGS [r16_584_TrROS] | 0.144 ± 0.076 | 0.166 ± 0.26 | 0.315 ± 0.19
SAGGIELTIPLPNGMLIKIKIESIHIQPVPVWRKKKDPDGKPKDWEPQPFTFSISIRFSIEIYDPDDLSAGG [r13_848_TrROS] | 3.47 ± 0.2 | 5.07 ± 0.16 | 4.97 ± 0.35
SAGGIEVEAESERVEGGVLRVTVTAADPDGVPIVLELPVPPGAPEITEEEARELAVEAALKVAAELASAGGS [r8_123_TrMRF] | 0.887 ± 0.034 | 0.517 ± 0.034 | 0.699 ± 0.053
SAGGIKEAFEAGVEVKDVEVPVLFPDGSEAEVVEVDPVDDGVRVVLRNPVTGELFEREIPPELIEPRPSAGG [r13_340_TrMRF] | 0.653 ± 0.019 | 0.172 ± 0.053 | 0.484 ± 0.07
SAGGIKIHVEREGNYYRIKIKWPNNNEISIPFDSPEDAEEQAEEQLQKQFPNMPPENVKIDEIEPYPPSAGG [r13_887_TrROS] | 0.173 ± 0.11 | 0.504 ± 0.15 | 0.469 ± 0.099
SAGGIKIPPGQEIEMPFKVRVGGEPYPFRIEIKILKVNPDNGHFLIKMEIEDPENGQPIAEFTFFIPPSAGG [r13_582_TrROS] | 2.64 ± 0.25 | 4.4 ± 0.23 | 3.35 ± 0.39
